According to patent US20050054047A1 (Amgen, published 2005):

How the values were obtained:
human TWEAK receptor = biological target: T1, human TWEAK receptor (human, UniProt Q9NP84 28-129); experiment: slide binding on transfected COS cells, I-125 anti-leucine-zipper antibody, autoradiography
T1 construct: Expressed on COS cells from an expression vector; The entry includes the signal peptide
T1 sequence: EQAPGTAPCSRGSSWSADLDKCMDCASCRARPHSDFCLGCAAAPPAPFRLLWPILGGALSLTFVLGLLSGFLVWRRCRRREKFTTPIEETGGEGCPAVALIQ
Experimental: (§1) Slides of COS cells were transfected with expression vectors containing TWEAKR, DR3, or vector without insert (control). After two days the cells were incubated with concentrated supernatants from CV-1 cells transfected with a vector encoding the leucine zipper TWEAK extracellular domain fusion protein. One hour later the cells were washed and probed with an I-125 labeled antibody against the leucine-zipper domain. The slides were washed, fixed, and autoradiography was performed using x-ray film. The TWEAKR transfected cells bound significant amounts of TWEAK. […] This experiment confirmed that the TWEAKR polypeptide identified in part A above, rather than DR3, is the major receptor for TWEAK. After discovery of the functional TWEAK receptor, other investigators also reported that DR3 is not the major receptor for TWEAK (Kaptein et al., FEBS Lett., 485(2-3): 135, 2000. The TWEAK-TWEAKR binding interaction was further characterized by Scatchard analysis.

DR3 = biological target: T2, DR3 (UniProt Q93038 25-417, limits assumed); experiment: as above
T2 construct: whole, on cells; also called Apo3; WSL-1
T2 sequence (looked up): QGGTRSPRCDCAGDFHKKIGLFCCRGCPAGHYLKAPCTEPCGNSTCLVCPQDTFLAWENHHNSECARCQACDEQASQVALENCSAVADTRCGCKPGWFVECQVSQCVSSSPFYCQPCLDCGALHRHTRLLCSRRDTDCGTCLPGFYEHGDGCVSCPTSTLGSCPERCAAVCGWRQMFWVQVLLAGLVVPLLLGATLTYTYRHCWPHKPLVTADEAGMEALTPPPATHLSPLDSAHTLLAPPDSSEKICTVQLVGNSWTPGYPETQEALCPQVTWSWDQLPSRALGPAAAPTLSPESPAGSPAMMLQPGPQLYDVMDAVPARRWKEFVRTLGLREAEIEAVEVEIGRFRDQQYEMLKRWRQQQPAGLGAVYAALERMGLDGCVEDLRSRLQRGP
Experimental: as §1

B1: leucine zipper TWEAK extracellular domain fusion protein (ligand)
chain: not shown
notes: Used as concentrated supernatant from transfected CV-1 cells; also called LZ-TWEAK; pDC409-LZ-TWEAK product
B1: binds (human TWEAK receptor); no binding (DR3).
